In publication PMC3303844, “C-Terminal Extension of the Yeast Mitochondrial DNA Polymerase Determines the Balance between Synthesis and Degradation”:

Experiments:
Conditions in all cases: protein: recombinant; tags: N-terminal 6xHis; label: 32P at 5' end of D25 primer; 25 bp duplex, 5' overhang 20 nt on D45 (recessed primer 3' end)
Mip1Δ216 = biological target: T1, Mip1Δ216 (Saccharomyces cerevisiae, UniProt P15801 30-1038, del1039-1254); experiment: EMSA; no Mg2+ or dNTP in binding mix; EMSA: 1 nM substrate, 0.2-12.5 nM polymerase, 20 mM Tris-HCl pH 8.0, 40 mM KCl, 10% glycerol, 0.1 mg/ml BSA, 2 mM DTT, 2 min at 0°C; native 8% Tris-glycine gel
T1 sequence: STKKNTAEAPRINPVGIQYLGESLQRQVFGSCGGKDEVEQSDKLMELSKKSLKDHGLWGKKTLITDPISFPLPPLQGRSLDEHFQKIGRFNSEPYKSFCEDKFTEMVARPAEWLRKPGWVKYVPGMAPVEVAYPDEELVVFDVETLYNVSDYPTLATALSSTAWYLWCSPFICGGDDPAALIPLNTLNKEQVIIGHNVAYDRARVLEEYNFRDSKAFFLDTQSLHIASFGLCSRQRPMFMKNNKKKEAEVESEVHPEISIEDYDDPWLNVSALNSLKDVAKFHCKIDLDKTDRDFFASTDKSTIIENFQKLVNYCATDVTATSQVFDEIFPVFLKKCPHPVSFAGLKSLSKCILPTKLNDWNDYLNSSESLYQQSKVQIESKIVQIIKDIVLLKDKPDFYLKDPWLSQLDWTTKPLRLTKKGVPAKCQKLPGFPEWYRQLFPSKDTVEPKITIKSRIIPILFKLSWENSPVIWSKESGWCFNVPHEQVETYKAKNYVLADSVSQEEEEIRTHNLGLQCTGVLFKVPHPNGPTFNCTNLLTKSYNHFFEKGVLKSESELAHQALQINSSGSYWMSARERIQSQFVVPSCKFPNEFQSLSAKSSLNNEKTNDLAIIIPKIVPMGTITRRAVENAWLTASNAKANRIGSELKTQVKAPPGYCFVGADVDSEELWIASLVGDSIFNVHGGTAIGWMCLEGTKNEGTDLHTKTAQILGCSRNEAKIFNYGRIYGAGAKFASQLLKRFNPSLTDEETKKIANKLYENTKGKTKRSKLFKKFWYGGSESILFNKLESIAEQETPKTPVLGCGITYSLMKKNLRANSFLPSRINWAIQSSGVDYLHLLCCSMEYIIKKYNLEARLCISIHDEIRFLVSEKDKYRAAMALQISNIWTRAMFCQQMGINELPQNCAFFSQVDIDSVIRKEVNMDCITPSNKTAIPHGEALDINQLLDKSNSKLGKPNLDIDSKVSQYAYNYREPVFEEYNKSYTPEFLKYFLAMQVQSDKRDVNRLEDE

Mip1Δ175 = biological target: T2, Mip1Δ175 (Saccharomyces cerevisiae, UniProt P15801 30-1079, del1080-1254); experiment: as above
T2 sequence: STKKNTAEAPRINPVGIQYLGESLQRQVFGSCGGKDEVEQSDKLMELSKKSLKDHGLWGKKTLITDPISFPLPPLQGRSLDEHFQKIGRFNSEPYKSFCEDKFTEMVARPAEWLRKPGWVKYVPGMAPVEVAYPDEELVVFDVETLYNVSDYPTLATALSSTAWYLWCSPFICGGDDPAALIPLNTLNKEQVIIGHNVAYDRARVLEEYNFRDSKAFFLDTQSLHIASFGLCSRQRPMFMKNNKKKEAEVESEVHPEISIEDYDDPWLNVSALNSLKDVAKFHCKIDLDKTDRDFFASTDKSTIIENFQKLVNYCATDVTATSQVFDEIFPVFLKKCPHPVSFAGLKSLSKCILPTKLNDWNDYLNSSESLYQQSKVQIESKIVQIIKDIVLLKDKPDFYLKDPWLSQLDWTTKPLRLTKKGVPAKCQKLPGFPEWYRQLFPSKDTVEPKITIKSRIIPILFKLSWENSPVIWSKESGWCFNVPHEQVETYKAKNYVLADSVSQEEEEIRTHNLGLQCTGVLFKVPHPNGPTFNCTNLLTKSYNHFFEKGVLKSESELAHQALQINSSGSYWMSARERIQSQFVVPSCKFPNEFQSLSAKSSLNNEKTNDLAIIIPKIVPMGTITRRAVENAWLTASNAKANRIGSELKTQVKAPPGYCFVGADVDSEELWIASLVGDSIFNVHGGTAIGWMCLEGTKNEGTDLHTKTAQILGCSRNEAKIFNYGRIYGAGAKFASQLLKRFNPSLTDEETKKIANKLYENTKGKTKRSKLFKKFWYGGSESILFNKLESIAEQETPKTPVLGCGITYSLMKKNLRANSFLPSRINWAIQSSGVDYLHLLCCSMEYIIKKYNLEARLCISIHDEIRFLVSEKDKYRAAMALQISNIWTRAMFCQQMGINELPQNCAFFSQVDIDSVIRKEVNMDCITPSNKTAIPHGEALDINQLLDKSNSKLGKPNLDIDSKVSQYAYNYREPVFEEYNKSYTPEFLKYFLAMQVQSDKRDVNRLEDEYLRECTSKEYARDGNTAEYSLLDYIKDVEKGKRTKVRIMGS

[1] = biological target: T3, FL-Mip1 (mitochondrial DNA polymerase gamma) (Saccharomyces cerevisiae, UniProt P15801 30-1254); experiment: as above
T3 sequence: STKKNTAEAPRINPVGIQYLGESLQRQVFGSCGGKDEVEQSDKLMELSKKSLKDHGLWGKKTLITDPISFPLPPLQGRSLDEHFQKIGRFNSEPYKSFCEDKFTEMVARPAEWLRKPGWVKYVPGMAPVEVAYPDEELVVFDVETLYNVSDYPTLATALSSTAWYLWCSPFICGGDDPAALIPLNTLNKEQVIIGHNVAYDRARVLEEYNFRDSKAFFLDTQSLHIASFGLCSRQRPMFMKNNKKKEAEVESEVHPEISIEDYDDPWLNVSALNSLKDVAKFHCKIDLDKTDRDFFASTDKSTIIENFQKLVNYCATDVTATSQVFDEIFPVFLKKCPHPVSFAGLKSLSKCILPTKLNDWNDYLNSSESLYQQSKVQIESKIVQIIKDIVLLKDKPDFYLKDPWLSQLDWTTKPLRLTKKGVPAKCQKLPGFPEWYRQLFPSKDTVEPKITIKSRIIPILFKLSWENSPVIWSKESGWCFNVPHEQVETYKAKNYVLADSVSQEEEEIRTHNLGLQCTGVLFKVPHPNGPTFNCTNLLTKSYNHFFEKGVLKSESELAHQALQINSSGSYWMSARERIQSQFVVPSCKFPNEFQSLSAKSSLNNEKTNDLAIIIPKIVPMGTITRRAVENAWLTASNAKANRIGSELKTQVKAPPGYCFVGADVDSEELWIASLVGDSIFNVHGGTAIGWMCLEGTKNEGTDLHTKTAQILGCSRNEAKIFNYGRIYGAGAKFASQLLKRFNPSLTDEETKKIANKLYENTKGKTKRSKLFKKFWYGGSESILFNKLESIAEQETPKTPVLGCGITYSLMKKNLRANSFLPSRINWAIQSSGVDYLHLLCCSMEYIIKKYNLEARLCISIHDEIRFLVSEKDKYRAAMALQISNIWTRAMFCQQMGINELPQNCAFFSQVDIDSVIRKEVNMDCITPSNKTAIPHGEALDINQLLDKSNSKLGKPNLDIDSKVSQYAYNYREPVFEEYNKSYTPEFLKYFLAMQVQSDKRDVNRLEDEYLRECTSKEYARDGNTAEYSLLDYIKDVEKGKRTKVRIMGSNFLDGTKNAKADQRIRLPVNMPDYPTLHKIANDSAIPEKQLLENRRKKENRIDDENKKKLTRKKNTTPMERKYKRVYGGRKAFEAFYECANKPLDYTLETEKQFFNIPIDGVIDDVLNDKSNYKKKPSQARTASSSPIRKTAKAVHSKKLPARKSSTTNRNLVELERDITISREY

Mip1Δ279 = biological target: T4, Mip1Δ279 (Saccharomyces cerevisiae, UniProt P15801 30-975, del976-1254); experiment: EMSA; faint shifted band, complex possibly retained in well (aggregation); not quantified; EMSA: 1 nM substrate, 0.2-12.5 nM polymerase, 20 mM Tris-HCl pH 8.0, 40 mM KCl, 10% glycerol, 0.1 mg/ml BSA, 2 mM DTT, 2 min at 0°C; native 8% Tris-glycine gel
T4 sequence: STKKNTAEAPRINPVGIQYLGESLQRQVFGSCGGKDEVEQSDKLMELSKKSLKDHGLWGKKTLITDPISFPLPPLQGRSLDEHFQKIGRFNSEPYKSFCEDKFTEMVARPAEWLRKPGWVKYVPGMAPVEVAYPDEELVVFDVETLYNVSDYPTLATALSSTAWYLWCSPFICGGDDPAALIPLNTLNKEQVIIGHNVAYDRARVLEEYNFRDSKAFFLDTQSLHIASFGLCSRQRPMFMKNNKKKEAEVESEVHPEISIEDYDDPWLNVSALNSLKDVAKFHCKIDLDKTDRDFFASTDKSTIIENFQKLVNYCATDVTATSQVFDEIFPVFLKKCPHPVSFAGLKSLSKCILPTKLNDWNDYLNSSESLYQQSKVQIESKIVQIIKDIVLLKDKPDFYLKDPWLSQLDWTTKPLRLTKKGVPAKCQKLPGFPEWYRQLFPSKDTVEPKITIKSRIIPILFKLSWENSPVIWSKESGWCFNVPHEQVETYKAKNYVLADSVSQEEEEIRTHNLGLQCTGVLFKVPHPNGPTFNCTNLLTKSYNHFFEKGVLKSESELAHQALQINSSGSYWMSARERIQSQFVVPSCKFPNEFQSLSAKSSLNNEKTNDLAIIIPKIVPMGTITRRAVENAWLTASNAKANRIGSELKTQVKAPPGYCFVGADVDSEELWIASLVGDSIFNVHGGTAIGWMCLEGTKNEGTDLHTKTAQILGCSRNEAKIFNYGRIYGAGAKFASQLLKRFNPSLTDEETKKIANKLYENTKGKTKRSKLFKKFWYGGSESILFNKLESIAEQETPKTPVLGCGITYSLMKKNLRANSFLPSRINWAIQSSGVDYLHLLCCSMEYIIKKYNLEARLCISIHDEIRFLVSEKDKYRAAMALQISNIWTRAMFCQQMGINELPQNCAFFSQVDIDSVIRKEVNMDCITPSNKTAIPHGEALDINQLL

B1: 45/25 primer-template (D45/D25) (dsDNA)
DNA 1: GGACGGCATTGGATCGAGGTTGAGTTGGTTGGACGGCTGCGAGGC
DNA 2: GCCTCGCAGCCGTCCAACCAACTCA
For B1, the Kd (Mip1Δ216) was 0.95 ± 0.18 nM, the Kd (Mip1Δ175) was 2.2 ± 0.75 nM and the Kd [1] was 4.3 ± 0.68 nM. B1: binds (Mip1Δ279).
